Experimental data reported in article PMC11811190, “Cryo-EM structures of the BAF-Lamin A/C complex bound to nucleosomes” (Nature Communications, 2025).

Experiments:
[1] = target: T1, Lamin A/C IgF domain (411-566) (human, UniProt P02545 411-566); assay: cryo-EM structure; BAF-Lamin A/C IgF-nucleosome complex, high gel mobility (fraction 1); BAF 3-fold, Lamin A/C IgF 6-fold over 0.93 uM nucleosome (193 bp DNA), 30 min 30 °C, GraFix with glutaraldehyde; 3.82 Å; settings: both partners purified
T1 construct: Lamin A/C, human, residues 411-566 (IgF domain); MBP cut on-column with TEV protease; also called Lamin A/C (411-566); Ig-fold domain of Lamin A/C; source: E. coli Rosetta 2 (DE3), purified (amylose resin, Superdex 75); not shown: MBP, N-terminal, cleaved
T1 sequence (looked up): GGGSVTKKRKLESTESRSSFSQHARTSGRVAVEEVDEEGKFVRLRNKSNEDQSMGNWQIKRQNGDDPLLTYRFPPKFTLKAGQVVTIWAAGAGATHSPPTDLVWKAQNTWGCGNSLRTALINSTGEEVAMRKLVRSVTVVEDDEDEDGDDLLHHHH

[2] = target: the molecule itself; assay: as above

B1: Barrier-to-autointegration factor (BAF) (natural protein, human, UniProt O75531 1-89, looked up)
chain: MTTSQKHRDFVAEPMGEKPVGSLAGIGEVLGKKLEERGFDKAYVVLGQFLVLKKDEDLFREWLKDTCGANAKQSRDCFGCLREWCDAFL
notes: Barrier-to-autointegration factor (BAF), human, full length; His tag cut with thrombin; also called human BAF; full-length BAF; not shown: His6, N-terminal, cleaved
B1: binds [1]; binds [2].
